The values that follow come from ChEMBL document CHEMBL1126368, “Carbocyclic phosphonate analogs of 2,3-dideoxyadenosine-5-monophosphate as substrates of 5-phosphoribosyl-1-pyrophosphate (PRPP) synthetate” (Bioorg Med Chem Lett, 1992).

Data set [1] in a line: Ratio (FA) of Vmax/Km of the compound.
A short description of data set [2]: Ratio (FA) of Vmax/Km of AMP to that of compound.
Substrate in data set [3]: Nc1ncnc2c1ncn2C1CCC(COP(=O)(O)O)O1
The data set is described as follows: Vmax as a substrate for 0.4 ug of Pyrophosphate Synthetase (PRPP) per assay. Particulars: Escherichia coli.

Substrate in data set [4]: Nc1ncnc2c1ncn2C1CCC(COP(=O)(O)O)O1
Description: Km value as a substrate for 0.4 ug of Phosphribosyl Pyrophosphate Synthetase (PRPP) per assay. Particulars: Escherichia coli.

Substrate in data set [5]: Nc1ncnc2c1ncn2[C@H]1CC[C@@H](CCP(=O)(O)O)C1
The data set is described as follows: (§1) Km value as a substrate for Pyrophosphate Synthetase (PRPP). Particulars: Escherichia coli.

Substrate in data set [6]: Nc1ncnc2c1ncn2[C@H]1CC[C@@H](CCOP(=O)(O)O)C1
The data set is described as §1. The settings on record: Escherichia coli.

Substrate in data set [7]: Nc1ncnc2c1ncn2C1O[C@H](COP(=O)(O)O)[C@H](O)[C@@H]1O
The data set is described as §1. The settings on record: Escherichia coli.

Substrate in data set [8]: Nc1ncnc2c1ncn2[C@@H]1C[C@H](CCP(=O)(O)O)C[C@@H]1O
Described as §1. The settings on record: Escherichia coli.

Substrate in data set [9]: Nc1ncnc2c1ncn2CCCCCP(=O)(O)O
The description is as §1. Particulars: Escherichia coli.

Substrate in data set [10]: Nc1ncnc2c1ncn2C1CCC(COP(=O)(O)O)O1
Description: Vmax as a substrate for per mg of Pyrophosphate Synthetase (PRPP). Particulars: Escherichia coli.

Substrate in data set [11]: Nc1ncnc2c1ncn2[C@H]1CC[C@@H](CCP(=O)(O)O)C1
Description: (§2) Vmax as a substrate for Pyrophosphate Synthetase (PRPP). The settings on record: Escherichia coli.

Substrate in data set [12]: Nc1ncnc2c1ncn2[C@H]1CC[C@@H](CCOP(=O)(O)O)C1
The description is as §2. Particulars: Escherichia coli.

Substrate in data set [13]: Nc1ncnc2c1ncn2CCOCP(=O)(O)O
Described as §2. Particulars: Escherichia coli.

Substrate in data set [14]: Nc1ncnc2c1ncn2C1O[C@H](COP(=O)(O)O)[C@H](O)[C@@H]1O
Described as §2. Particulars: Escherichia coli.

Substrate in data set [15]: Nc1ncnc2c1ncn2[C@H]1CC[C@@H](CC(F)(F)P(=O)(O)O)C1
Described as §2. The settings on record: Escherichia coli.

Substrate in data set [16]: Nc1ncnc2c1ncn2[C@@H]1C[C@H](CCP(=O)(O)O)C[C@@H]1O
The data set is described as §2. The settings on record: Escherichia coli.

Substrate in data set [17]: Nc1ncnc2c1ncn2CCCCCP(=O)(O)O
The description is as §2. Particulars: Escherichia coli.

For orientation: Km means the concentration of substrate that gives half-maximal velocity.

As to `Nc1ncnc2c1ncn2C1CCC(COP(=O)(O)O)O1` (stereo unspecified), the Ratio in [1] turned out to be 1.
Regarding `Nc1ncnc2c1ncn2CCCCCP(=O)(O)O`, the Ratio in data set [2] turned out to be 32.
The same measure, in the same setting: the same measure for `Nc1ncnc2c1ncn2[C@@H]1O[C@H](COP(=O)(O)O)[C@H](O)[C@@H]1O`: 13.
On the same count and under the same terms, the same measure for `Nc1ncnc2c1ncn2[C@H]1CC[C@@H](CCP(=O)(O)O)C1`: 63; for `Nc1ncnc2c1ncn2[C@H]1CC[C@@H](CCOP(=O)(O)O)C1`: 179.
As to `Nc1ncnc2c1ncn2[C@@H]1C[C@H](CCP(=O)(O)O)C[C@@H]1O`, the Ratio in data set [2] was determined as 11.

B1: Ribose-phosphate pyrophosphokinase 1 (Homo sapiens), P60891 (protein)
chain: MPNIKIFSGSSHQDLSQKIADRLGLELGKVVTKKFSNQETCVEIGESVRGEDVYIVQSGCGEINDNLMELLIMINACKIASASRVTAVIPCFPYARQDKKDKSRAPISAKLVANMLSVAGADHIITMDLHASQIQGFFDIPVDNLYAEPAVLKWIRENISEWRNCTIVSPDAGGAKRVTSIADRLNVDFALIHKERKKANEVDRMVLVGDVKDRVAILVDDMADTCGTICHAADKLLSAGATRVYAILTHGIFSGPAISRINNACFEAVVVTNTIPQEDKMKHCSKIQVIDISMILAEAIRRTHNGESVSYLFSHVPL
Turning to B1, the Vmax is 100% in data set [3]; 34.5 µM/h in data set [10]; 3% in [11]; 0.5% in data set [12]; 0.2% in data set [13]; 45% in data set [14]. Moreover, the Vmax in data set [15] is 0.07%; in data set [16] it was 7.4%; in [17], 7.5%. In addition, the Km in data set [4] came to 290 µM; in data set [5], 550 µM; in data set [6], 260 µM; in data set [7], 1700 µM; in data set [8], 240 µM; in data set [9] it was 690 µM.
